# Experiment: soluble on expression in E. coli; label from the status in PepcDB or PDB records
row,Sequence,soluble on expression in E. coli
1,MNAFNPTQFRAQFPALADAGVYLDSAATALKPQAVIDATHQFYCLSAGNVHRSQFAQAQRLTAQYEAARAKAARLLNAPDEKSIVWTRGTTEAINMVAQCYARPRLRPGDEIIVSVAEHHANLVPWLMVAQQTGAQVIKLPLNDRRLPDVERLPELITSRSRILALGQMSNVTGGCPDLASAISAAHAAGMVVMVDGAQGAVHFPADVQQLDIDFYAFSAHKLYGPTGIGVLYGKPELLEAMSPWLGGGKMIRDVSFEGFTTQSAPWKLEAGTPNVAGVIGLSAALEWLSDIDIEQAENWSRGLATLAEDALAKRPGFRSFRCQDSSLLAFDFVGVHHGDMVTLLAEYGIALRAGQHCAQPLLAELGVTGTLRASFAPYNTQHDVDALVNAVDRALELLVD,not soluble
2,QVKPFSFVRDTDPVQLVNFLQSEHPQTIAVVLSYLDPPVAAQILGALPEELQTEVLKRIALLERTSPEVVKEIERNLEKKISGFVSRTFSKVGGIDTAAEIMNNLDRTTEKKIMDKLVQENPELADEIRRRMFVFEDILKLDDRSIQLVLREVDTRDLALALKGASDELKEKIFKNMSKRAAALLKDELEYMGPVRLKDVEEAQQKIINIIRRLEEAGEIVIARGGGEELIM,soluble
3,MSTVNVQIGLHELLNGSNAQIQLSVPQLVEKVLMRNEGKLTSTGAVSASTGKYTGRSPKDKFIVKEASVADKIAWGAVNQPISEEHFNKLYTKVLEYLKEKEELFVFKGFAGADRNYRLPIQVINEYAWHNLFVHQLFIRPTEEELTTHESEFTIVSAPNFKADPAVDGTNSEAFIMVSFEKRIVLIGGTEYAGEMKKSIFSIMNFLLPEQDILSMHCSANVGEEGDVALFFGLSGTGKTTLSADPNRKLIGDDEHGWSDNGVFNIEGGCYAKCVNLSHEKEPQIFDAITFGSVLENVIINDQTRIADYNDTTLTENTRAAYPMHAIDNIILPSVAGHPNTIIFLTADASGVLPPISKLSKEQAMYHFLSGYTSKLAGTERGVTSPQATFSTCFGSPFLPLDASRYAEMLGEKIEKHDAKVFLVNTGWTGGEYGVGKRMNLGYTRAMIQAALNGELAKTETAKHDIFGLEVPLHVPGVPDEVLMPEQTWADKAAYKAKAIELANEFKANFKKFDSVSEDIINLGGPIA,not soluble
4,MSLARMSRRSRGAAGAQSVVKPETPMAQVLHQFNYCPCQYLEQNWIVPKQPWLLNLDGWRDNPNFNLWCLEEWALAPVPETAFNKPHHSLALLPPDALSTLMLTIGGALHSFAMRQVVLKKPKQCLNNVFGLDIARFLIQQGPMLLSQWPKGWQKALPDVMKEDEVERHMLKQGYAWMKFILASSSHDILLRWQFKLDQSLSQVKENTSWLVEEQRDLAYRLTKKIAKQVIPQWFHLLKEGHHHHHH,not soluble
5,MGSDKIHHHHHHMSASLQTADRVRRWRIEGELTTRTPLHMGSGSFEARQELRRAPQTDDIAKAKAVLLDSDQRPCLTGSGLKGAMLAWANAYLPDPERDRLLFGCEPDGDGKGQGGRLEFQTAFLSQNKENTSPSSSPTPFWMSDRRTDVDTGVRINRASGTALDKHLFYKEVVAPGTAFRMVLDLDLPACCTDKGHALVNRVLALLEAFNLSDDDRVPPLTLGAMTGRGHGRFAWRLTNLSRVTDASARTWIDKGAPGTWAAALTPVPDKGPWQTTAKATLEVVQSPATLVCEVTLTFDHRFLISEPARVVTEDEARTRSGKTRTAGIMPKVDGKGNAVLPTASIKGVLRSRAERILATLTGDASAFEHAPGRGPAGQDNPAADMMTDRCLPTSRLFGAASWRAALDVEPFRPLSGHTTVAHQELVAIDRFTGGVSGSAKYDIDAFHRPQFKGRLRLNLRRSRLEDVGLLVLLLRDLAEGDLSFGYGGTKGYGGTQAMVTVQVRGTTAGTQALPLPEETGGAGIDTPVSWSSIQDSALASPLREAVAAFRRLYCKGEAV,not soluble
6,MGHHHHHHSHMEFLTFLKSDYTHANLVDKALQLLKERILKGDTLAYFLRGQLYFEEGWYEEALEQFEEIKEKDHQATYQLGVMYYDGLGTTLDAEKGVDYMKKILDSPCPKARHLKFAAAYNLGRAYYEGKGVKRSNEEAERLWLIAADNGNPKASVKAQSMLGLYYSTKEPKELEKAFYWHSEACGNGNLESQGALGLMYLYGQGIRQDTEAALQCLREAAERGNVYAQGNLVEYYYKMKFFTKCVAFSKRIADYDEVHDIPMIAQVTDCLPEFIGRGMAMASFYHARCLQLGLGITRDETTAKHYYSKACRLNPALADELHSLLIRQRI,not soluble
7,DQGIVIYNAQHENLVKSWVDGFTKDTGIKVTLRNGGDSELGNQLVQEGSASPADVFLTENSPAMVLVDNAKLFAPLDAATLAQVEPQYRPSHGRWIGIAARSTVFVYNPAKLSDAQLPKSLLDLAKPEWKGRWAASPSGADFQAIVSALLELKGEKATLAWLKAMKTNFTAYKGNSTVMKAVNAGQVDSGVIYHYYPFVDGAKTGENSNNIKLYYFKHQDPGAFVSISGGGVLASSKHQQQAQAFIKWITGKQGQEILRTNNAFEYAVGVGAASNPKLVPLKDLDAPKVDAAQLNSKKVVELMTEAGLL,soluble
8,MGSDKIHHHHHHMAVVQHHLPLSARLPARGIFEDDWRDRPSKRHPYPVILIHGTGVTKGDWMELGHALRSLGYAVWAPDFGMRSTAAVAESAAQVGAYIDAVLTVTKAKKAIVVGHSQGGILARYWMHNLDGANKVSHLISLAVPHHGTSHGGMMSPLGRTPRGTAVIDSLITGFFGASGFEMLHDSELIAQLNEHGDTLPYVYYSCIATRSDTIIQPVESCFLHGKLVRNIYAQAVSKHAIILHEDMPHDPRVRRLVIAEIERVERLTIPS,not soluble
9,MLGLVSLCALILILWRVVYRSVTRPLAEQTQALQRLLDGDIDSPFPETAGVRELDTIGRLMDAFRSSVHALNRHREQLAAQVKARTAELQELVIEHRQARAEAEKASQAKSAFLAAMSHEIRTPLYGILGTAQLLADNPALNAQRDDLRAITDSGESLLTILNDILDYSAIEAGGKNVSVSDEPFEPRPLLESTLQLMSGRVKGRPIRLATEIADDVPTALMGDPRRIRQVITNLLSNALRFTDEGHIILRSRTDGEQWLVEVEDSGCGIDPAKLAEIFQPFVQVSGKRGGTGLGLTISSRLAQAMGGELSATSTPEVGSCFCLRLPLRIATAPVPKTVNQAVRLDDLRLLLIEDNPLTQRITVEMLNTSGAQVVAVGNAAQAIEALQNSEPFAAALVDFDLPDIDGITLARQLAQQYPSLVLIGFSAHVIDETLRQRTSSLFRGIIPKPVPREVLGQLLAHYLQLQVNNDQPLDVSQLNEDAHLMGAEKIHEWLILFKQHALPLLDEIDIARASQDNEKIKRAAHQLKSSCSSLGMRSASQQCAQLEQQPLSAPLPHEEITRSVAALEAWLIRKT,not soluble
10,QVQLKESGPGLVAPSQSLSITCTVSGFSLTDYGVDWVRQPPGKGLEWLGMIWGDGSTDYNSALKSRLSITKDNSKSQVFLKMNSLQTDDTARYYCVRDPADYGNYDYALDYWGQGTSVTVSSAKTTPPSVYPLAPGSAAQTNSMVTLGCLVKGYFPEPVTVTWNSGSLSSGVHTFPAVLQSDLYTLSSSVTVPSSTWPSETVTCNVAHPASSTKVDKKIVPRDCG,soluble
11,MTTKNTLQPTEAAYIAGFLDGDGSIYAKLIPRPDYKDIKYQVSLAISFIQRKDKFPYLQDIYDQLGKRGNLRKDRGDGIADYTIIGSTHLSIILPDLVPYLRIKKKQANRILHIINLYPQAQKNPSKFLDLVKIVDDVQNLNKRADELKSTNYDRLLEEFLKAGKIESSP,soluble
12,MAHHHHHHMTNDTEQEQSPSAELAAAAPEPQPSQPQEFYSLRGESHNAVDQEKYGRARTHIAGLGHVSAKDVFKHYRRSWLTPFFGSNEPEPTLQQEGTQHPCQIFSREVHQCLEDHHNSFAFCQTRVAAFQQCLREFSI,not soluble
13,GPGSMVIKKDVPFKYTLHQGLCERDPVLSTPLIITAGVDGNELQYRLDMQVPSHSAIEGMEVTNVEFLFTSSKCNAGKSNQHLSKCSMLVYLYMQLLDGVGRPTSPPFPISCCNTHTGKGIFSCVKLPLQVNQQCRFYLVRRSCTDSASQSAMELKGVRFTSKLYLLYRSPLNSAKVRSQMDVLTGGDLKFTADTEVMTSTGAKRSREELERFGSENSDRKGKKAKRERETATTMDRASDDEPPNLIYAFVSGGDNES,soluble
14,MASSVVFAATGSLSVPPLKSRRFYVNSSLDSDVSDMSVNAPKGLFPPEPVPYKGPKLKVAIIGAGLAGMSTAVELLDQGHEVDIYDSRTFIGGKVGSFVDRRGNHIEMGLHVFFGCYNNLFRLMKKVGAEKNLLVKDHTHTFINKDGTIGELDFRFPVGAPIHGIRAFLVTNQLKPYDKLRNSLALALSPVVKALVDPDGAMRDIRNLDSISFSDWFLSKGGTRASIQRMWDPVAYALGFIDCDNMSARCMLTIFSLFATKTEASLLRMLKGSPDVYLSGPIKQYITDRGGRIHLRWGCREILYDKSADGETYVTGLAISKATNKKIVKADVYVAACDVPGIKRLLPKEWRESRFFNDIYELEGVPVVTVQLRYNGWVTELQDIELARQLKRAVGLDNLLYTPDADFSCFADLALASPADYYIEGQGTLLQCVLTPGDPYMRMPNDKIIEKVAMQVTELFPSSRGLEVTWSSVVKIAQSLYREAPGKDPFRPDQKTPIKNFFLAGSYTKQDYIDSMEGATLSGRQASSYICDAGEELAELNKKLSSSATAVPDELSLV,not soluble
15,MGSDKIHHHHHHMELEKIRKLYEKVDPSQLTEREKLLTELIFTDRKLKTDKLPNGRYRILQFSGNNFEELENTLKLLLPDFVKSIGEEKIVIEAFSTDSPTNSELFDIFQTLSQDMGEEVTAYVGRFVEKNKLSEVYSEEYKIFESQQTFSEYILSESLNLSENRILQEIRKELLENPEDQKLVEAMYKASSNQTKAAKILYVHRNTLINKIKKYEQKYGLQLSGSDLTLAYNLL,not soluble
16,MGSDKIHHHHHHMSEDILPITISLAGEKDTIRLGEDLALALKPGDCLTLIGDLGAGKSTLARAFIRAMADEPDLEVPSPTFTIIQTYTTRIPVAHLDLYRLSDVSELDELGIDEMLEDGICLIEWPDIAAEVLPPAQTITLQLTHSGEGRVAVIEAPAQQKARLDRVFAIREFLAKNGRGDATRRFLSGDASTRAYETISTDGPDLILMDWRRPMRGAIVADGKTYAEIVHLAQDARSFVAIGDYLRNSGFRAPEILAADIDQGILLLEDLGREGVLAADGTPIEERYLQSVACLATLHQTPRPALLPMRDGSTYDIPSFDRQAMKIEVSLLVEWYLPHKRGKALTDGEKQDYYAIWDGLIDALAGCETGLLLRDFHSPNILWQAQNSGIGQVGLIDFQDAMIGPTAYDLASIVQDARVTIPPELQTRLMSHYLNSRKATPAFDEAAFLKAFAIMSAQRNCKLAGIWVRLLERDKKPGYMKHMPRTFRYLADALSHPELAPLREWCVRMGMDFND,not soluble
17,MLLMEKILYQTDEFKLKPSGWYKTIPPKKDGGTEFEIMLSGPIAFTDRFIDPATRKEKVFLSDLNNIELVEKASILTALQLPSLIEYGFTINEKHIRDLGFVLQQMRSTTPLSTIYSGVGMLHTLLGPLISLDQPYFSNEITNSTSIICDNKYDLIPKGNLSEWLQMYKEEVHGNLSLELDVLFGVSSLVTAFLKYHNNVEFSGTIFSFTGQSSTGKSTAAMLAASVAGNPTKGTENLFRSWNATRNALEGYLSGNYGVPIVLDELSAATFHDTTGLLYSFAEGQGRQRANINGDVKTPKNLEHHHHHH,not soluble
18,DVFQNKANVCWAKALVPVLKTAGIDMTTEQWNTVDYFETDKAHSAEIVLNQLCVRFFGLDLDSGLFSAPTVPLSIRNNHWDNSPSPNMYGLNKEVVRQLSRRYPQLPRAVATGRVYDMNTGTLRNYDPRINLVPVNRRLPHALVLHHNEHPQSDFSSFVSKLKGRTVLVVGEKLSVPGKMVDWLSDRPEATFRARLDLGIPGDVPKYDIIFVNVRTPYKYHHYQQCEDHAIKLSMLTKKACLHLNPGGTCVSIGYGYADRASESIIGAIARQFKFSRVCKPKSSLEETEVLFVFIGYDRKARTHNPYKLSSTLTNIYTGS,soluble

# — the DeepSol protein solubility set
